Source: patent US20180280504A1, “GLYCAN-INTERACTING COMPOUNDS AND METHODS OF USE” (SIAMAB THERAPEUTICS, INC., priority 2014, published 2018)
Each block holds one molecule with its values, some of them ahead of it.

Tests used:
[1] = PAA-glycan ELISA, GcSTn-PAA; type: binding; conditions: 200 ng/well PAA antigen; 1:5 dilutions from 1 μM
Procedure: (§1) 18D2 and 18C7 antibodies were further characterized by ELISA comprising antigens other than BSM. ELISAs were carried out according to Example 2, with the exception that ELISA plates were coated with biotinylated polyacrylamide (PAA) particles comprising either AcSTn (AcSTn-PAA), GcSTn (GcSTn-PAA) or Tn (Tn-PAA) as antigens. These particles present the antigens in a multivalent format. Briefly, 96-well ELISA plates were coated with 200 ng/well of each PAA antigen and blocked with PBS with 1% OVA. Antibodies were serially diluted at 1:5 in PBS with 1% OVA using an initial concentration of 1 μM. After blocking, antibodies were added to the plates and plates were incubated for 1.5 hours at room temperature. Binding of anti-STn antibodies was detected using a goat anti-mouse IgG-HRP conjugated antibody (Jackson Immunoresearch Laboratories, West Grove, Pa.). The reaction was developed by addition of HRP substrate and hydrogen peroxide. The reaction was then stopped by the addition of sulfuric acid (1.6 M). Optical densities were measured at 490 nm. A dose-response curve was generated using readings at each concentration tested and a non-linear regression curve was generated with four-parameter modeling to determine EC50 values for each antibody.

[2] = PAA-glycan ELISA, AcSTn-PAA; type: binding; conditions: 200 ng/well PAA antigen; 1:5 dilutions from 1 μM
Procedure: as §1

[3] = system: MDA-MB-231-STn Human Breast Tumor Xenograft; test: MDA-MB-231-STn human breast cancer xenograft model, tumor volume; type: in vivo, mouse; conditions: 5 mg/kg i.p. once weekly
Text: To evaluate antibody drug conjugates (ADCs) as single agents in an MDA-MB-231-STn Human Breast Tumor Xenograft model, 40 ICR SCID female mice age range 6-8 weeks were randomly separated into four separate groups, one vehicle control and three ADC treatments, then maintained individually with food/water ad libitum (see the following Table).
Animals were inoculated in the subcutaneous right flank with 5×10^6 breast tumor cells (MDA-MB-231-STn) in matrigel, mean tumor size was 175-225 mm^3 at study initiation. Animals were given either vehicle or antibody drug conjugates (5 mg/kg) by intraperitoneal injection once weekly. Tumor volume and percent body weight change were determined once weekly until study termination. The study was terminated when the tumor in the vehicle control animal reached a mean tumor weight ≥1500 mm^3. SE refers to “standard error.”

[4] = E3-STn allograft model, average weight of mice; type: in vivo, mouse
Procedure: Balb/c mice were used as part of the test system. 50 female mice were inoculated with E3-STn cells to cause STn-expressing tumor formation. Mice were maintained under pathogen-free conditions with irradiated feed and autoclaved water.
The average weight of mice in each treatment group was also determined on days 1, 4, 6, 8, 11, 13, 15, 18, 20, 22, 26, 27, 29, 32, 34, 36, 39 and 41 following the first administration of each test article (see the following Table). The percent gain or loss over initial weight values is listed in parentheses.

[5] = E3-STn allograft model, second round study, average body weight
Procedure: 50 female Balb/cmice were inoculated with E3-STn cells to cause STn-expressing tumor formation when they were 5 weeks old. Mice were housed in individually ventilated microisolator cages, and maintained under pathogen-free conditions with irradiated feed and autoclaved water. […] Beginning on the first day of the study, body weight and tumor volumes were recorded twice weekly. 33 mice with mean tumor volume between 100 and 150 mm^3 were selected for randomization.
The average weight of mice in each treatment group was also determined on days 1, 5, 8, 12, 15,19, 22, 26, 29, 33, 36, 40, 43, 47 and 50 following the first administration of each test article (see the following Table). The percent gain or loss over initial weight values is listed in parentheses.

[6] = system: E3-STn tumors; test: E3-STn allograft model, second round study, tumor volume; type: in vivo, mouse; conditions: for Average Tumor Volume: 25 mg/kg i.p. twice weekly
Text: Standard deviation values are listed in parenthesis.

EC50 [1]: 2.59 nM
EC50 [2]: 4.1 nM
B1: 18C7: anti-STn mouse monoclonal, IgG2c κ, from mouse #4436; VH SEQ ID NO: 4, VL SEQ ID NO: 5 (antibody, V domains shown)
VH: QVTLKESGPGILQPSQTLSLTCSFSGFSLSTFGMGVGWIRQPSGKGLEWLAHIWWDDDKYYNPALKSRLTISKDTSKNQVFLKIANVDTADTATYYCARIAYYYGSERDYWGQGTTLTVSS
VL: QIVLTQSPAIMSASPGEKVTMTCSASSSISYMHWYHQKPGTSPKRWIYDTSKLASGVPARFSGSGSGTSYSLTISSMEAEDAATYYCHQRSSYTFGGGTKLEIKR

B2: S3F: 3F1 variable domains combined with IgG2a constant domains; heavy chain SEQ ID NO: 63, light chain SEQ ID NO: 64 (antibody)
heavy: QVQLQQSDAELVKPGASVKISCKASGYTFTDHAIHWVKQKPEQGLDWIGYISPGNGDIKYNEKFKDKVTLTADKSSSTACMHLNSLTSEDSAVYFCKRSLLALDYWGQGTTLTVSSAKTTAPSVYPLAPVCGDTTGSSVTLGCLVKGYFPEPVTLTWNSGSLSSGVHTFPAVLQSDLYTLSSSVTVTSSTWPSQSITCNVAHPASSTKVDKKIEPRGPTIKPCPPCKCPAPNLLGGPSVFIFPPKIKDVLMISLSPIVTCVVVDVSEDDPDVQISWFVNNVEVHTAQTQTHREDYNSTLRVVSALPIQHQDWMSGKEFKCKVNNKDLPAPIERTISKPKGSVRAPQVYVLPPPEEEMTKKQVTLTCMVTDFMPEDIYVEWTNNGKTELNYKNTEPVLDSDGSYFMYSKLRVEKKNWVERNSYSCSVVHEGLHNHHTTKSFSRTPGK
light: DIVMTQSHKFMSTSVGDRVSITCKASQDVGTNIAWYQQKPGRSPKVLIYSASTRHTGVPDRFTGSGSGTDFTLTISNVQSEDLTDYFCQQYSSFPLTFGVGTKLELKRADAAPTVSIFPPSSEQLTSGGASVVCFLNNFYPKDINVKWKIDGSERQNGVLNSWTDQDSKDSTYSMSSTLTLTKDEYERHNSYTCEATHKTSTSPIVKSFNRNEC
total tumor volume course ([3]; ICR SCID mice): increased at all time points
Tumor Volume ([3]; day 1): 178.6 mm^3
Tumor Volume ([3]; day 4): 194.3 mm^3
Tumor Volume ([3]; day 8): 244.9 mm^3
Tumor Volume ([3]; day 10): 301.0 mm^3
Tumor Volume ([3]; day 15): 445.1 mm^3
Tumor Volume ([3]; day 18): 609.7 mm^3
Tumor Volume ([3]; day 23): 775.4 mm^3
Tumor Volume ([3]; day 25): 972.7 mm^3

B3: 7G9: anti-STn mouse monoclonal, IgG2b κ, from mouse #4407; VH SEQ ID NO: 12, VL SEQ ID NO: 9 (antibody, V domains shown)
VH: QVQLKESGPGLVAPSQNLSITCTVSGFSLTSYGVNWVRQPPGKGLEWLGVIWGDGSTNYHSALISRLIISKENSKSQVFLKLNSLQTNDTATYYCTKGFVYWGQGTLVTVSA
VL: QIVLTQSPAIMSASPGEKVTMTCSASSSVSYMHWYQQKSGTSPKRWIFDTSKLASGVPARFSGSGSGTSYSLTISSMEAEDAATYYCQQWSSNLLTFGAGTKLELK
Average Weight ([4]; day 1 of study): 17.1 g
Average Weight ([4]; day 4 of study): 17.3 g
percent gain or loss over initial weight ([4]; day 4 of study): (1.7) %
Average Weight ([4]; day 6 of study): 18.2 g
percent gain or loss over initial weight ([4]; day 6 of study): (6.9) %
Average Weight ([4]; day 8 of study): 18.2 g
percent gain or loss over initial weight ([4]; day 8 of study): (6.5) %
Average Weight ([4]; day 11 of study): 18.3 g
percent gain or loss over initial weight ([4]; day 11 of study): (7.3) %
Average Weight ([4]; day 13 of study): 18.6 g
percent gain or loss over initial weight ([4]; day 13 of study): (8.9) %
Average Weight ([4]; day 15 of study): 18.7 g
percent gain or loss over initial weight ([4]; day 15 of study): (9.9) %
Average Weight ([4]; day 18 of study): 18.6 g
percent gain or loss over initial weight ([4]; day 18 of study): (9.0) %
Average Weight ([4]; day 20 of study): 18.9 g
percent gain or loss over initial weight ([4]; day 20 of study): (10.8) %
Average Weight ([4]; day 22 of study): 18.9 g
percent gain or loss over initial weight ([4]; day 22 of study): (11.1) %
Average Weight ([4]; day 26 of study): 19.0 g
percent gain or loss over initial weight ([4]; day 26 of study): (11.7) %
Average Weight ([4]; day 27 of study): 19.1 g
percent gain or loss over initial weight ([4]; day 27 of study): (11.9) %
Average Weight ([4]; day 29 of study): 19.4 g
percent gain or loss over initial weight ([4]; day 29 of study): (14.0) %
Average Weight ([4]; day 32 of study): 19.2 g
percent gain or loss over initial weight ([4]; day 32 of study): (12.6) %
Average Weight ([4]; day 34 of study): 19.5 g
percent gain or loss over initial weight ([4]; day 34 of study): (14.2) %
Average Weight ([4]; day 36 of study): 19.6 g
percent gain or loss over initial weight ([4]; day 36 of study): (14.8) %
Average Weight ([4]; day 39 of study): 20.2 g
percent gain or loss over initial weight ([4]; day 39 of study): (18.7) %
Average Weight ([4]; day 41 of study): 20.3 g
percent gain or loss over initial weight ([4]; day 41 of study): (19.2) %
percent gain in weight as compared to Paclitaxel and vehicle control ([4]; over the course of treatment): higher percent gain in weight
Average Weight ([5]; day 1 of study): 18.3 g
Average Weight ([5]; day 5 of study): 18.7 g
percent gain or loss over initial weight ([5]; day 5 of study): (2.4) %
Average Weight ([5]; day 8 of study): 19.4 g
percent gain or loss over initial weight ([5]; day 8 of study): (6.5) %
Average Weight ([5]; day 12 of study): 20.1 g
percent gain or loss over initial weight ([5]; day 12 of study): (10.1) %
Average Weight ([5]; day 15 of study): 20.4 g
percent gain or loss over initial weight ([5]; day 15 of study): (12.0) %
Average Weight ([5]; day 19 of study): 20.9 g
percent gain or loss over initial weight ([5]; day 19 of study): (14.3) %
Average Weight ([5]; day 22 of study): 20.8 g
percent gain or loss over initial weight ([5]; day 22 of study): (14.1) %
Average Weight ([5]; day 26 of study): 21.5 g
percent gain or loss over initial weight ([5]; day 26 of study): (17.8) %
Average Weight ([5]; day 29 of study): 22.1 g
percent gain or loss over initial weight ([5]; day 29 of study): (21.1) %
Average Weight ([5]; day 33 of study): 22.2 g
percent gain or loss over initial weight ([5]; day 33 of study): (21.4) %
Average Weight ([5]; day 36 of study): 22.1 g
percent gain or loss over initial weight ([5]; day 36 of study): (21.0) %
Average Weight ([5]; day 40 of study): 22.8 g
percent gain or loss over initial weight ([5]; day 40 of study): (25.0) %
Average Weight ([5]; day 43 of study): 22.9 g
percent gain or loss over initial weight ([5]; day 43 of study): (25.4) %
Average Weight ([5]; day 47 of study): 22.8 g
percent gain or loss over initial weight ([5]; day 47 of study): (25.0) %
Average Weight ([5]; day 50 of study): 23.8 g
percent gain or loss over initial weight ([5]; day 50 of study): (30.2) %
percent gain in weight as compared to vehicle control ([5]; second round study): higher percent gain in weight
Average Tumor Volume ([6]; day 1 of treatment): 125.9 mm^3
Average Tumor Volume ([6]; day 5 of treatment): 135.2 mm^3
Average Tumor Volume ([6]; day 8 of treatment): 144.5 mm^3
Average Tumor Volume ([6]; day 12 of treatment): 157.2 mm^3
Average Tumor Volume ([6]; day 15 of treatment): 169.2 mm^3
Average Tumor Volume ([6]; day 19 of treatment): 178.0 mm^3
Average Tumor Volume ([6]; day 22 of treatment): 186.4 mm^3
Average Tumor Volume ([6]; day 26 of treatment): 195.9 mm^3
Average Tumor Volume ([6]; day 29 of treatment): 199.4 mm^3
Average Tumor Volume ([6]; day 33 of treatment): 201.5 mm^3
Average Tumor Volume ([6]; day 36 of treatment): 206.5 mm^3
Average Tumor Volume ([6]; day 40 of treatment): 212.9 mm^3
Average Tumor Volume ([6]; day 43 of treatment): 243.7 mm^3
Average Tumor Volume ([6]; day 47 of treatment): 277.5 mm^3
Average Tumor Volume ([6]; day 50 of treatment): 313.4 mm^3
average tumor volumes as compared to vehicle control ([6]; second round study, 25 mg/kg i.p. twice weekly for 7 weeks): greatly reduced
